In US20110287023A1 (AstraZeneca / MedImmune, published 2011):

B1: human anti-HMG1 antibody G12 (antibody, IgG1, V domains shown)
VH: EVQLLESGGGLVQPGGSLRLSCAASGFTFSYYMMTWVRQAPGKGLEWVSSISPSGGYTIYADSAKGRFTISRDNSKNTLYLQMNSLRAEDTAVYYCARALSTGSFWDYWGQGTLVTVSS
VL: DIQMTQSPGTLSLSPGERATLSCRASESLTSTYVAWYQHKPGQAPRLLIHGGSTRATGIPVRFSGSGSGTDFTLTIATLEPEDFAVYYCQQYGSSPYTFGQGTKLEIK
notes: full length IgG1 made from a human Fab phage clone
B2: human anti-HMG1 antibody G20 (antibody, IgG1, V domains shown)
VH: EVQLLESGGGLVQPGGSLRLSCAASGFTFSWYDMFWVRQAPGKGLEWVSWISPSGGYTKYADSVKGRFTISRDNSKNTLYLQMNSLRAEDTAMYYCARSGLDYYDSSGYLDAFDIWGQGTMVTVSS
VL: DIQMTQSPSSVSASVGDRVTITCRASQDVSIWLAWYQQKPGKAPKLLIFGASRLQSGVPSRFSGSRSGADFTLTIDSVQPEDFASYYCQQADSFPLTFGGGTKVEIK
notes: as for B1
B3: human anti-HMG1 antibody G9 (antibody, IgG1, V domains shown)
VH: EVQLLESGGGLVQPGGSLRLSCAASGFTFSSYDMFWVRQAPGKGLEWVSRISPSGGYTYYADSVKGRFTISRDNSKNTLYLQMNSLRAEDTAVYYCARLRYFDSRGYAFDIWGQGTMVTVSS
VL: DIQMTQSPGTLSLSPGERATLSCRASQSVRSSYLAWYQQKPGQAPRLLIYGASTRATGIPDRFSGSGSGTDFTLTISRLEPEDFAVYYCQQYGTSRWTFGQGTKVEIK
notes: as for B1
B4: human anti-HMG1 antibody S14 (antibody, IgG1, V domains shown)
VH: EVQLLESGGGLVQPGGSLRLSCAASGFTFSWYETGWVRQAPGKGLEWVSGISPSGGYTQYADSVKGRFTISRDNSKNTLYLQMNSLRAEDTAVYYCARSGVGATKIFDYWGQGTLVTVSS
VL: DIQMTQSPSSLSASVGDRVTIICRANERINTYLNWYQQKPGKAPKLLISGTSSLESGVPSRFSGSGSGTEFTLSISSLQPEDFASYYCQQSYSSPYTFGQGTNLEIR
notes: as for B1
B5: human anti-HMG1 antibody S10 (antibody, IgG1, V domains shown)
VH: EVQLLESGGGLVQPGGSLRLSCAASGFTFSWYDMWWVRQAPGKGLEWVSWIVPSGGITAYADSVKGRFTISRDNSKNTLYLQMNSLRAEDTATYYCARGNYGPSPFDYWGQGTLVTVSS
VL: DIQMTQSPGTLSLSPGERATLSCRATQSVRKNFLAWYQQKPGQAPRLLIYDASSRATGIPDRFSGSGSGTDFTLTISRLEPEDFAVYYCQQYGNSPIIFGQGTRLEIK
notes: as for B1
B6: human anti-HMG1 antibody G35 (antibody, IgG1, V domains shown)
VH: EVQLLESGGGLVQPGGSLRLSCAASGFTFSWYKMVWVRQAPGKGLEWVSSIVPSGGITIYADSVKGRFTISRDNSKNTLYLQMNSLRAEDTAVYYCARVQQWLGRPYFDYWGQGTLVTVSS
VL: DIQMTQSPLSLPVTPGEPASISCRSSQSLLHGNGYNYLDWYLQRPGQSPQLLIYSGSNRASGVPDRFSGSGSGTDFTLKISRVEAEDVGVYYCMQSLQSRTFGQGTKVEIK
notes: as for B1
B7: human anti-HMG1 antibody G34 (antibody, IgG1, V domains shown)
VH: EVQLLESGGGLVQPGGSLRLSCAASGFTFSHYMMGWVRQAPGKGLEWVSRISPSGGGTVYADSVKGRFTISRDNSKNTLYLQMNSLRAEDTAVYYCARGGNWNYISYYYYYLDVWGKGTTVTVSS
VL: DIQMTQSPSSLSASVGDRVAITCRASQSIDTYLNWYQQKPGKAPKLLIYAASKLEDGVPSRFSGSGTGTDFTLTIRSLQPEDFASYFCQQSYSSPGITFGPGTKVEIK
notes: as for B1

Each binder was assayed against T1, HMG2 coated on ELISA plates (Bos taurus (Bovine), UniProt P40673 2-209) (assay: direct ELISA, HMGB2 coated at 5 ug/mL, OD 490).
T1 construct: also called HMGB2; HMBG2
T1 sequence: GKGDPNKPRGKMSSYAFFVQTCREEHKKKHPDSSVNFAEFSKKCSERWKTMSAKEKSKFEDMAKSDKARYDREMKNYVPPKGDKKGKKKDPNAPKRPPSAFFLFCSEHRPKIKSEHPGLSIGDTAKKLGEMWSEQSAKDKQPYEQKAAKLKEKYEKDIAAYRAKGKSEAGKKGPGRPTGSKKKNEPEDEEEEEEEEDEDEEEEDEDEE
Method: (§1) Binding to HMG1 vs. HMG2: Ultra high-binding ELISA plates (ThermoLab systems, #3855) were coated with either 5 ug/mL of Calf thymus HMGB1 or HMBG2 diluted in 10 mM Phosphate buffered saline (PBS), pH 7.2 and incubate overnight at 4 degrees. The plates were washed twice with Ca and Mg free PBS and 100 microliters of anti-HMGB1 antibody diluted in 10 mM PBS, pH 7.2+1% bovine serum albumin (BSA) to a final concentration of 10 ug/mL was added to each well and the plates were incubated 1 hour at room temperature. The wells were washed three times with 100 μl of PBS, pH 7.2. HRP labeled goat-anti-human IgG Kappa-chain (KPL, #14-10-10) and goat-anti-human IgG Lambda-chain (KPL, #14-10-11) were diluted in 10 mM PBS+1% BSA 1:1000 and 100 μl were added to each well and incubated for 1 hour at room temperature. The wells were then washed three times with 100 μl of PBS, pH 7.2. OPD substrate (Pierce chemical company, #34006) was prepared following the manufacturers instructions and 100 μl of prepared substrate was added to each well and the plates incubated at room temperature in the dark for 20-30 minutes. The reaction was stopped with the addition of 100 μl of 2M H₂SO₄, and the plates read on a plate reader at a wavelength of 490 nm.
B1: no binding (tested: 10 ug/mL (single concentration)).
B2: no binding (tested: 10 ug/mL (single concentration)).
B3: no binding (tested: 10 ug/mL (single concentration)).
B4: no binding (tested: 10 ug/mL (single concentration)).
B5: no binding (tested: 10 ug/mL (single concentration)).
B6: no binding (tested: 10 ug/mL (single concentration)).
B7: no binding (tested: 10 ug/mL (single concentration)).

The binders below were run against T2, HMG1 purified from calf (bovine) thymus (bovine, UniProt P10103 2-215) (assay: direct ELISA, calf thymus HMGB1 coated at 5 ug/mL, antibody at 10 ug/mL, anti-human kappa/lambda-HRP, OD 490).
T2 construct: also called Calf thymus HMGB1; thymus HMG1
T2 sequence (looked up): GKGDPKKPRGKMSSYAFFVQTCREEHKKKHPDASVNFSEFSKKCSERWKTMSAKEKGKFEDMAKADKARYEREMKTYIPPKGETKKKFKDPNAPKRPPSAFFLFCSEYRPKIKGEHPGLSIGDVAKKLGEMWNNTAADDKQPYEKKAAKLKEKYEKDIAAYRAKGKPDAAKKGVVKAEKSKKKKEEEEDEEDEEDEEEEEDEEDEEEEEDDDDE
Method: as §1
B1: binds.
B2: binds.
B3: binds.
B4: binds.
B5: binds.
B6: binds.
B7: binds.

Target: T3, HMG1 B Box peptide amino acids 91-169
T3 construct: also called HMG1 peptide 91-169
T3 peptide: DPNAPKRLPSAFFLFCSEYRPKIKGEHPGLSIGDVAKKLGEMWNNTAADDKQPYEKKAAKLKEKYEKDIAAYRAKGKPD
Test: ELISA, HMG1 B Box peptide 91-169 coated at 10 ug/ml, antibody titrated, OD 450
Method: (§2) The plate was then blocked with 4% milk powder dissolved in PBS at 37° C. for 1 hour. The blocking solution was removed and replaced with human anti-HMG1 antibodies at various concentrations (see FIGS. 5A-B). […] HRP activity was detected with Sureblue HRP substrate (KPL). Plates were read at 450 nm using a Kinetic Microplate Reader (Molecular Devices). […] After washing and blocking with 1% BSA in PBS, the biotinylated peptides were individually added into the avidin coated wells and incubated for 30 min at room temperature. The serial diluted antibody G4, S16 and S6 at the initial concentration at 10 μg/ml were then transferred into the wells followed by adding mouse anti human IgG-HRP conjugate (Pierce). Detection was accomplished by adding 50 μl of tetramethylbenzidine (TMB) substrate (KPL) and the absorbance was read at 450 nm.
B1: no binding (tested: 10 ug/ml (log 1.0)).
B2: no binding (tested: 10 ug/ml (log 1.0)).
B3: no binding (tested: 10 ug/ml (log 1.0)).
B4: no binding (tested: 10 ug/ml (log 1.0)).
B5: no binding (tested: 10 ug/ml (log 1.0)).
B7: no binding (tested: 10 ug/ml (log 1.0)).

Each binder was assayed against T4, recombinant HMG1 produced in E. coli as a calmodulin binding protein (CBP) fusion (human) (assay: BIAcore 3000, mAb amine-coupled to CM5, HMG1 injected, steady-state model).
T4 construct: also called rHMG1; rHMGB1
T4 sequence (P09429 whole entry, the tested form may be a part): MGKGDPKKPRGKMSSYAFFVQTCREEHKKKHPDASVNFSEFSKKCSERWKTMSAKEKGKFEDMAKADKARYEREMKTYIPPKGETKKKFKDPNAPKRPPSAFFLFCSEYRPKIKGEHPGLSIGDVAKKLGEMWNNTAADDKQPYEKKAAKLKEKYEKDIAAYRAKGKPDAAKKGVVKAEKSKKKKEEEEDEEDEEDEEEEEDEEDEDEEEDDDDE
Method: HMG1 Binding Affinity via BIAcore Analysis: All experiments were performed on a BIAcore 3000 instrument (BIAcore, Inc., Piscataway, N.J.). Briefly, each mAb was immobilized to a CM5 sensor chip using a standard amine coupling chemistry. Separately a reference (control) flow cell was also prepared. Two-fold, serial dilutions of HMG1 in instrument buffer were sequentially injected at a slow flow rate over the individual mAb and reference flow-cell surfaces. Following the binding and dissociation of HMG1, the mAbs surfaces were regenerated with a brief pulse of 1M NaCl-50 mM NaOH. At the end of each experiment, the binding curves were evaluated using a steady-state model available through the BIAevaluation software supplied by BIAcore, Inc. (Piscataway, N.J.).
In the case of B1, the Kd is reported as 0.073 µM.
In the case of B2, the Kd is reported as 0.114 µM.
Binder B3 has a Kd of 0.125 µM.
B4 showed a Kd of 0.205 µM.
B5 was tested, and the Kd was 0.054 µM.
For B6, the Kd was 0.242 µM.
In the case of B7, the Kd is reported as 0.067 µM.

What follows are binders tested against T4, recombinant HMG1 produced in E. coli as … (assay: ELISA, coated RAGE-Fc, rHMG1 preincubated with antibody).
Method: HMG1 binding to RAGE-Ig by ELISA: 50 μl/well of RAGE-Fc fusion protein at 5 μg/ml in PBS was added to each well of an ELISA plate and incubated overnight at 4° C. The plate was then blocked with 200 μl of 5% milk at 37° C. for 1 hr and washed 3× with PBS/Tween. 50 μl/well of diluted HMGB1 solution. For dose curves, HMGB1 concentrations started at 4 ug/ml in PBS. For antibody blocking the HMGB1 was preincubated in another plate with human anti-HMG1 antibodies or buffer, then transferred to the RAGE-coated plate. The plates were then incubated at room temperature for 2 hours and washed 3×. To detect any HMG1 bound to the immobilized RAGE-Fc a mixture of biotinylated mouse anti-HMG1 mAbs (10D4, 4H11, 3E10 and 5C12) each at 1 ug/ml, total Ab: 4 ug/ml, were added to each well and the plate was incubated for 1 hour at room temperature. The plate was then washed and Strepavidin-HPR was added to each well and incubated 15 min. The plate was then washed 3× and blotted dry. 100 μl of TMB developing agent was added and the plate read at 650 nm. Values were calculated as percent of inhibition with HMG1 alone equal to 0% inhibition. The data in FIG. 9 and summarized in Table 1 represent the average of two separate experiments.
For B5, the “percent inhibition of HMG1 binding to RAGE” value was ≥ 35%.

Target: T5, HMG1 B Box peptide amino acids 150-183
T5 peptide: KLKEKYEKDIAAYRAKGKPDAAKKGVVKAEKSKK
Test: ELISA, HMG1 B Box peptide 150-183 coated at 10 ug/ml, antibody titrated, OD 450
Method: as §2
B1: no binding (tested: 10 ug/ml (log 1.0)).
B2: no binding (tested: 10 ug/ml (log 1.0)).
B3: no binding (tested: 10 ug/ml (log 1.0)).
B4: no binding (tested: 10 ug/ml (log 1.0)).
B5: no binding (tested: 10 ug/ml (log 1.0)).
B6: no binding (tested: 10 ug/ml (log 1.0)).
B7: no binding (tested: 10 ug/ml (log 1.0)).

What follows are binders tested against T4, recombinant HMG1 produced in E. coli as … (assay: cell-based or functional assay).
For B1, the “IC50 IL-1β” value was 5.91 mg/L, the “IC50 IL-6” value was 0.00112 µM and the “IC50 IL-12” value was 2.79 mg/L. For the same binder, the “IC50 TNF-α” value was 0.796 mg/L.
In the case of B2, the “IC50 IL-1β” value is reported as 0.4 mg/L, the “IC50 IL-6” value is reported as 0.000652 µM and the “IC50 NO” value is reported as 20.4 mg/L. For the same binder, the “IC50 TNF-α” value was 0.598 mg/L.
In the case of B3, the “IC50 IL-1β” value is reported as 0.211 mg/L, the “IC50 IL-6” value is reported as 0.000246 µM and the “IC50 TNF-α” value is reported as 0.248 mg/L.
For B4, the “IC50 IL-1β” value was 0.0578 mg/L, the “IC50 IL-6” value was 0.000191 µM and the “IC50 TNF-α” value was 0.0662 mg/L.
B5 was tested, and the “IC50 IL-1β” value was 2.59 mg/L, the “IC50 IL-6” value was 0.000324 µM and the “IC50 IL-12” value was 1.13 mg/L. For the same binder, the “IC50 TNF-α” value was 0.875 mg/L.
With B6 the “IC50 IL-6” value was 0.000563 µM.
With B7 the “IC50 IL-6” value was 0.000858 µM.
